Results as given in publication PMC9751095, “The mitochondrial chaperone TRAP1 regulates F-ATP synthase channel formation” (Cell Death and Differentiation, 2022).

Biological target: T1, recombinant mature human OSCP (human, UniProt P48047 24-213)
T1 construct: human F-ATP synthase subunit OSCP, mature protein
T1 sequence (looked up): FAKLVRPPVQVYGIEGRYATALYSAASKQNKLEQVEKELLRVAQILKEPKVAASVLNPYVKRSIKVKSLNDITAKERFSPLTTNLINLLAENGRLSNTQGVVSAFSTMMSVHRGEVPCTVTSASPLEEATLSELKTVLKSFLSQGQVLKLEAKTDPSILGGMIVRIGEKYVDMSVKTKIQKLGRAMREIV
Assay: SPR; Biacore T100, CM5 chip, CyPD immobilized by amine coupling (800-1200 RU); OSCP injected at increasing concentrations; Langmuir interaction model
Details: both partners purified

binding result: binds
B1: purified recombinant human cyclophilin D (enzyme)
chain: not shown
notes: human cyclophilin D, cDNA from a human placenta library; called 'recombinant mature human' for the SPR; also called CyPD; CypD; source: E. coli BL21(DE3)pLysS (plasmid pSUMO-Cyclophilin D), purified
